The DeepSol protein solubility set

Assay: soluble on expression in E. coli; label from the status in PepcDB or PDB records

Sequence | soluble on expression in E. coli
MFKIQEVRELIKLIDSSNIDEFEYKKDGTTIKMKKRGNEVVAVQAPVAKQAVQPVAPVEVETTVAAAQVEVPKQEEKKAVQNENLHKITSPMVGTFYSSSSSSPDTPPYVSVGDRVSKDSIVCIVEAMKLFNEIDADVDGEIVEILVNNGQLVEYGQPLFLVKA | not soluble
MFKKFLSLCIVSTFSVAATSALAQPNQLVGKSSPQQLAPLMKAASGKGIKNQYIVVLKQPTTIMSNDLQAFQQFTQRSVNALANKHALEIKNVFDSALSGFSAELTAEQLQALRADPNVDYIEQNQIITVNPIISASANAAQDNVTWGIDRIDQRDLPLNRSYNYNYDGSGVTAYVIDTGIAFNHPEFGGRAKSGYDFIDNDNDASDCQGHGTHVAGTIGGAQYGVAKNVNLVGVRVLGCDGSGSTEAIARGIDWVAQNASGPSVANLSLGGGISQAMDQAVARLVQRGVTAVIAAGNDNKDACQVSPAREPSGITVGSTTNNDGRSNFSNWGNCVQIFAPGSDVTSASHKGGTTTMSGTSMASPHVAGVAALYLQENKNLSPNQIKTLLSDRSTKGKVSDTQGTPNKLLYSLTDNNTTPNPEPNPQPEPQPQPDSQLTNGKVVTGISGKQGELKKFYIDVPAGRRLSIETNGGTGNLDLYVRLGIEPEPFAWDCASYRNGNNEVCTFPNTREGRHFITLYGTTEFNNVSLVARY | not soluble
MFKRVFNLRFISNFSRRPTSSPKLPKLIAITGGTSLGIAFFGKTEENKNLDSGNGQLIDGKPKNFDLIVRNSDELYDNYLIDNCYNILKKFENSNCSELLWRLARVVCEKGKLSKDQNQRKELILEAYGIVKKALDNEPKNGCFGAHKWYAILLDYVGEIEGNKSRIEKSFQVRKHLEKALSIFENDPTTWHILGVWHFSFANMGYATRMVAKAIFATPPASTYQEALHYFLKAEQISPGFYSTNTYYIGEVYEQLGQKAEALDAFKQSFKMPVVTSDDAVIHKKAYEKLKKYGVKDTEVV | not soluble
MFLRIDRLQIELPMPKEQDPNAAAAVQALLGGRFGEMSTLMNYMYQSFNFRGKKALKPYYDLIANIATEELGHIELVAATINSLLAKNPGKDLEEGVDPESAPLGFAKDVRNAAHFIAGGANSLVMGAMGEHWNGEYVFTSGNLILDLLHNFFLEVAARTHKLRVYEMTDNPVAREMIGYLLVRGGVHAAAYGKALESLTGVEMTKMLPIPKIDNSKIPEAKKYMDLGFHRNLYRFSPEDYRDLGLIWKGASPEDGTEVVVVDGPPTGGPVFDAGHDAAEFAPEFHPGELYEIAKKLYEKAK | soluble
MFLSRGFNAFIAKPIDVMQLDAVLNTWVRDRKSIEILKQAEMIAPLIIENANQNIFDSVQIEGLDLVRGKKKYNNDAAYLDILRSWHKHTPALLEKMRNPVFENLSEYAITVHGIKGASLGICADEISSKAEELEHYAKSGNIGKVQADNSMFIGMAESLLANIGELLEKFDVGKKEKPKKHAPDPALLDRLLEAAKSYKSTLMEETMCSIESYDYDSDMELVTWLRQQMDDLEYDAIRQKLESRMPGFVET | not soluble
MFLVDSHCHLDGLDYQSLHKDVDDVLAKAAARDVKFCLAVATTLPGYRHMRKLVGKRDNVVFSCGVHPLNQDEAYDVEELRLLAAEDDVVAMGETGLDYFYTPETKIRQQASFIHHIQIGRELHKPVIVHTRDARADTLAILREEKVTDCGGVLHCFTEDRETAGKLLDLGFYISFSGIVTFRNAEQLRDAARYVPLDRLLVETDSPYLAPVPHRGKENQPAMVRDVAEYMAVLKGVAVEELAQITTDNFARLFHIDASRLSSIR | not soluble
MFNYERPKHFIQSQNPCGSRLQPPGPETSSFSSQTKQSSIIIQPRQCTEQRFSASSTLSSHITMSSSAFPASPQQHAGSNPGQRVTTTYNQSPASFLSSILPSQPDYNSSKIPSAMDSNYQQSSAGQPINAKPSQTANAKPIPRTPDHEIQGSKEALIQDLERKLKCKDTLLHNGNQRLTYEEKMARRLLGPQNAAAVFQAQDDSGAQDSQQHNSEHARLQVPTSQVRSRSTSRGDVNDQDAIQEKFYPPRFIQVPENMSIDEGRFCRMDFKVSGLPAPDVSWYLNGRTVQSDDLHKMIVSEKGLHSLIFEVVRASDAGAYACVAKNRAGEATFTVQLDVLAKEHKRAPMFIYKPQSKKVLEGDSVKLECQISAIPPPKLFWKRNNEMVQFNTDRISLYQDNTGRVTLLIKDVNKKDAGWYTVSAVNEAGVTTCNTRLDVTARPNQTLPAPKQLRVRPTFSKYLALNGKGLNVKQAFNPEGEFQRLAAQSGLYESEEL | soluble
MFPEQQKEEFVSVWVRDPRIQKEDFWHSYIDYEICIHTNSMCFTMKTSCVRRRYREFVWLRQRLQSNALLVQLPELPSKNLFFNMNNRQHVDQRRQGLEDFLRKVLQNALLLSDSSLHLFLQSHLNSEDIEACVSGQTKYSVEEAIHKFALMNRRFPEEEEEGKKDADVEYDSESSSSGLGHSSDDSSSHGCKTSPALQES | soluble
MFPFSPADVPTLSYFDEYRGRRVQCHFCFQEVDGSTLLNHFKDDLRVFRYPSNSCYGIAATGDALRAHLRRLHFYSRPPAVRGFDIEQRRIRSQLKFDEHEHDPDWDMEDVQQENRSKEAPVEAVNSQDATSPAEKVSKIKEDISTSSSRVDPMYSDEDSEDETSDADSSDDENRESEEEEDEY | not soluble
MFPQTTMDHILHPTPREGYYVVELNRSVWVVPNYYINLTPIGTGAYGTVCAAECTRSGTRVAIKKFNRPFQSIIHARRTYRELRLLRCMCHENIIDLLDVFTPNENVNDIEDVYFVSMLMGADLSNILKIQRLNDDHIQFLVYQILRGLKYIHSADIIHRDLKPSNIAVNEDCELKILDFGLARQTDSEMTGYVATRWYRAPEIMLNWMHYTQTVDVWSVGCILAELITGKTLFPGSDHIDQLTRIMSVTGTPDEEFLKKISSEEARNYIRNLPKMTRRDFKRLFAQATPQAIDLLEKMLHLDPDRRPTAKEAMEHEYLAAYHDETDEPIAEEMDLNDDVRADTIDEWKKIIWEEISDFQKNVAFADEEEDEEKMES | not soluble
MFPSSEVEAKRTTLNLELESNTDRLLQEKDDLLPQSVTNSSDEGTPFAQVEGASDDNTAEQDSDKPGASVADADTKPVDPEWKTITVASGDTLSTVFTKAGLSTSAMHDMLTSSKDAKRFTHLKVGQEVKLKLDPKGELQALRVKQSELETIGLDKTDKGYSFKREKAQIDLHTAYAHGRITSSLFVAGRNAGLPYNLVTSLSNIFGYDIDFALDLREGDEFDVIYEQHKVNGKQVATGNILAARFVNRGKTYTAVRYTNKQGNTSYYRADGSSMRKAFIRTPVDFARISSRFSLGRRHPILNKIRAHKGVDYAAPIGTPIKATGDGKILEAGRKGGYGNAVVIQHGQRYRTIYGHMSRFAKGIRAGTSVKQGQIIGYVGMTGLATGPHLHYEFQINGRHVDPLSAKLPMADPLGGADRKRFMAQTQPMIARMDQEKKTLLALNKQR | not soluble
MFQAINASGSGLTTARKWMQVTSNNIVNANTPAAPGADLYERRSVVLESNNSFASMLDGAPTNGVKIKSIEADKTENLVYDPTHPHANEEGYVRYPNIDVTAEMTNVMVAQKMYEANTSVLNANKKMLDKDLEIGRG | not soluble
MFRMPIVTMERVDSFSAAHRLHSEKLSDAENKETFGKCNNSNGHGHNYVWKVKLRGEVDPTSGMVYDLAKLKKEMSLVLDTVDHRNLDKDVEFFKTTVSTSENVAIYMFEKLKSVMSNPSVLYKVTIEETPKNIFTYKGC | not soluble
MFSQAQFNVTMAEEDRWKQWYPNMEMIVNNKGPKLIFPELNFNITGLEEKSRYVVLLSIEKYDNIRYGYRNGKWGPSKVRHATKKEQEIKYFLHPDGTKLGKELMKETIKFDTVRITNHKKFMDKDNVFFVETMHKYVPVLTVKNITNVESANHSMRMEVAQFFPVTVYNQESIGNWKSKFHKNSTYGNRLDGGNKRKNTDSSEERTSKRSKNETEIAVSDILQVASQSENYNESTNSGRLQNEISSSIHQFPSTSYQNQYPHAYPTVNTPPIYVQQFTALFDEIHNQFDPKTKQNRVAKNVQYLSSVPQFAINQKENIHQNAPDYPVSQFPNQYPYGSYPYYYPYFQSSQQFPHLNYSMNNSIYSDSSFQSSFSAENSYFDENGNPIHYPYYSSN | not soluble
MFSYTDTILSIMQRIEVYNEIFKAISKEVQEYGCNQAAHRRGRDTYMFCRNNVNRFFTEEMMFRKNLEPYYDKEATKILLEGLDTYKEGVFFWLEALSESCQVTDELKYQLGIRQKESSYLLINQACKEACEGIQSAHSVHKM | not soluble
MFVAEHEVEIRYAETDQMGVVYHSNYLVWLELGRTKLIQDLGFSYVEMEKEGIISPVLDLQISYRKAMRYGEKASVKTWVDTVSPLRVVYGYEIYNGDGELCITASTTNICAKKEGFRPVSFKKLYPEWYAKYEEIKKK | not soluble
MFVIGIPTLNEADNISRLVKQIDEYAVNLGKEIIIINSDSKSTDGTPQIFLETKTYNTKVSIVSEAKGKGYNVRNIFEYAINHVPNFSGLILIDGDVVSMKKMWLEKMFIAIESGNDLIIPNYARKSFEGNATNHFIYPMLVKIFKRDMPYQCISGDFGFSRGLIKDLTLKCNWHKYTLGYGIDIFLTLTAILKSYKIKEIDLQSKIHKKSFEKIEKIFLEVSQSFFETINDNSLNQDKLRLNINFESHSRQFIKSSDILSSNDIENLKLRALFLLQEEKQYLHGLSEVEWDGILSNTINNIYRYSSEEHSLYLLPLYLLRVYNYLKYN | not soluble
MFYEKIQTPAYILEEDKLRKNCELLASVGEKSGAKVLLALKGFAFSGAMKIVGEYLKGCTCSGLWEAKFAKEYMDKEIHTYSPAFKEDEIGEIASLSHHIVFNSLAQFHKFQAKTQKNSLGLRCNVEFSLAPKELYNPCGRYSRLGIRAKDFENVDLSTIEGLHFHALCEESAGALEAVLKVFEEKFGKWIGQMKWVNFGGGHHITKKGYDVEKLIALCKNFSDKYGVQVYLEPGEAVGWQTGNLVASVVDIIENEKQIAILDTSSEAHMPDTIIMPYTSEVLNARILATRENEKISDLKESEFSYLLTGNTCLAGDVMGEYAFDKKLKIGDKIVFLDQIHYTIVKNTTFNGIRLPNLMLLNAKNELQMIREFSYKDYSLRN | not soluble
MFYLGIDAGGTKTSFMLINHLGEVLSTYTSGTCHIHQVGFDGFRKGIQEGIDKICSEINICRDDLSYSFLGLPAYGENESEKLKMNSIIAEILGENKFSCGNDVEVALAGSLAGQPGICIILGTGAIASGITNDLKTARTSGWGYICGDEGSGYWIAKKGVEIFGKQSDHRLERTALYDIFKNELKLENDFDLIFLIKDKYKQDRTKVANLAMLVYKAALKGDKYALDIYRQAAKECLLMVNGLTNQLEFTGVLNISYSGSVFNSKEFILDPLRNYLQDNYTAFNLTAPILPPIKGAALNALKLHKGEIPEGVVHNLAKEPKEILVLEHHHHHH | not soluble
MFYTTDTNQHGLPHDPFKAIVAPRPIGWIGSKGREGVLNLSPYSFFNAISDRPKLVMFSSSGRKDSLRNVEETGVFTANLVSRHLVDRMNASSAPVAYDVDEFALAGLTAVDGRVVDAPFVREALAVLECRATQIQQLTDIEGKPTDSWMVIGQVMAIHIGETIIRDGRIDMGLARPVARMGYMDYCDGGSDVFQLQRPSAAPSV | soluble
MGANGASGDHKQLKEIRIGIQQSLSPLLIAKEKGWFEDAFEKEGIKVKWVEFQSGPPQFEGLAADKLDFSQVGNSPVIAGQAAGIDFKEIGLSQDGLKANGILVNQNSGIQDVKGLKGKKIAVAKGSSGFDFLYKALDQVGLSANDVTIIQLQPDEAASAFENGSVDAWSIWEPYLSLETMKHGAKILVNGESTDLYSPGFTLVRTKFSEEHPDEVVRFLKVFNKAVVWQKEHLDEAADLYSDIKDLDKKVVENVLKNTEPLNEIISDDIVKAQQETADFQFRTKAIDKKIDVKDVVDNTFIKKALEEHSSGGDQLEHHHHHH | soluble
